Source: patent US6891028 (CEDARS SINAI MEDICAL CENTER, dated 2005)

Target: the molecule itself
Assay: anti-FLAG immunoblot of cell lysates, reducing (~105 kDa) against non-reducing (~215 kDa) SDS-PAGE
Description: Transfection and Immunoblotting. CHO-TRVb cells were maintained in F12-nutrient mixture (Gibco-BRL) supplemented with 5% fetal bovine serum. An amino terminal FLAG-tagged TfR2-α cDNA was subcloned into pcDNA3 (Invitrogen, Carlsbad, Calif.). This plasmid (100 μg) was transfected into CHO-TRVb cells using Lipofectin (Gibco-BRL). For transient expression, cells were harvested 48 h after the transfection. We also isolated a stably expressing clone using G418 (200 μg/ml) selection and a standard limiting dilution method. The protein expression was confirmed by immunoblotting using anti-FLAG (M5) antibody
Tf-binding to the TfR2-α Transfected Cells. To analyze the function of TfR2-α, we stably transfected CHO-TRVb cells, which lack functional TfR, with FLAG-tagged TfR2-α. FIGS. 6A, 6B and 6C show the expression and functional analysis of TfR2-α protein. In FIG. 6A, Tf-binding to the cell surface was examined in neomycin resistant control CHO-TRVb cells (left panels), FLAG-tagged TfR2-α stably transfected cells (middle) and TRVb-1,TfR stably transfected cells (right). The cells were incubated with 5 μg/ml of biotinylated human holo-Tf in MEM a media for 30 min on ice. After washing with PBS, the cells were incubated with streptavidin-PE, and analyzed by flow cytometry. […] After transferring to a PVDF membrane, FLAG-fusion proteins were detected by immunoblotting. […]

B1: FLAG-tagged TfR2-α (transferrin receptor 2, α form), expressed on transfected CHO-TRVb cells (receptor)
chain: MERLWGLFQRAQQLSPRSSQTVYQRVEGPRKGHLEEEEEDGEEGAETLAHFCPMELRGPEPLGSRPRQPNLIPWAAAGRRAAPYLVLTALLIFTGAFLLGYVAFRGSCQACGDSVLVVSEDVNYEPDLDFHQGRLYWSDLQAMFLQFLGEGRLEDTIRQTSLRERVAGSAGMAALTQDIRAALSRQKLDHVWTDTHYVGLQFPDPAHPNTLHWVDEAGKVGEQLPLEDPDVYCPYSAIGNVTGELVYAHYGRPEDLQDLRARGVDPVGRLLLVRVGVISFAQKVTNAQDFGAQGVLIYPEPADFSQDPPKPSLSSQQAVYGHVHLGTGDPYTPGFPSFNQTQFPPVASSGLPSIPAQPISADIASRLLRKLKGPVAPQEWQGSLLGSPYHLGPGPRLRLVVNNHRTSTPINNIFGCIEGRSEPDHYVVIGAQRDAWGPGAAKSAVGTAILLELVRTFSSMVSNGFRPRRSLLFISWDGGDFGSVGSTEWLEGYLSVLHLKAVVYVSLDNAVLGDDKFHAKTSPLLTSLIESVLKQVDSPNHSGQTLYEQVVFTNPSWDAEVIRPLPMDSSAYSFTAFVGVPAVEFSFMEDDQAYPFLHTKEDTYENLHKVLQGRLPAVAQAVAQLAGQLLIRLSHDRLLPLDFGRYGDVVLRHIGNLNEFSGDLKARGLTLQWVYSARGDYIRAAEKLRQEIYSSEERDERLTRMYNVRIMRVEFYFLSQYVSPADSPFRHIFMGRGDHTLGALLDHLRLLRSNSSGTPGATSSTGFQESRFRRQLALLTWTLQGAANALSGDVWNIDNNF
notes: The text describes TfR2-α as residues 1-801 (cytoplasmic 1-80, transmembrane 81-104, extracellular 105-801); Expressed from pcDNA3 in TfR-deficient CHO-TRVb cells, both stably and transiently; A disulfide-linked dimer is inferred from the non-reducing immunoblot; also called TfR2 cells; TfR2-α cells; not shown: amino terminal FLAG tag
B1: binds.
